PMC7828395, “Mapping the DNA-Binding Motif of Scabin Toxin, a Guanine Modifying Enzyme from Streptomyces scabies” (Toxins, 2021)

System: Nc1nc2c(ncn2[C@@H]2O[C@H](COP(=O)(O)O)[C@@H](O)[C@H]2O)c(=O)[nH]1
Assay: purified protein
Details: pH 7.9

Substance: (Streptomyces scabiei 87.22)
- K0.5: 289 ± 18 µM
- kcat: >3 s⁻¹
